Source: patent US20250270325A1

Molecular target: target antigen
Experiment: antigen binding ELISA, antigen coated on plate

isotype control (antibody) was tested. Which no binding up to (highest concentration tested) did it give?
Its no binding up to (highest concentration tested) is greater than 5 µM.
